Legend:
[1] = from the relative activity scale
Excerpt: Homocysteinase enzymes of suitable catalytic activity for use as starting materials to obtain mutated forms can be derived from other Pseudomonas species, or from other bacteria, using routine screening procedures and assays that are recognized in the art.

[2] = test system: Trichomonas vaginalis homocysteinase, isolated native enzyme (may reflect expression from more than one gene); settings: native enzyme isolated from T. vaginalis; Lockwood et al., 1991; cited from earlier work
CSCC[C@H](N)C(=O)O = experiment: Km of the novel homocysteinase expressed from the pAC2-1 clone (α-ketobutyrate/pyruvate assay, MBTH); format: biochemical, Trichomonas vaginalis; settings: other: 37° C., pH 8.0, 100 mM phosphate buffer, 10 μM pyridoxal phosphate, 10 minutes, DL-homocysteine, L-cysteine or L-methionine separately, 10 μM to 1.6 mM
Excerpt: (§1) In FIG. 1 (panels A and B) are depicted the amino acid sequences of two Trichomonas vaginalis homocysteinases, the first derived from a novel clone (pAC2-1) of the present invention, and the second, the enzyme derived from the known mgl1 gene (see also SEQ ID NOS: 10 and 12 for comparison of amino acids; SEQ ID NOS: 9 and 11 for comparison of encoding DNA's). It will be seen that pAC2-1 is characterized by the existence of three differences (mutations), compared to mgl1:
(§2) Phe to Leu at amino acid position 47,
(§3) Asp to Glu at amino acid position 172, and
(§4) Ser to Tyr at amino acid position 308.
(§5) In the first step of this assay, 1 ml volumes of 100 mM phosphate buffer pH 8.0, containing also 10 μM pyridoxal phosphate, […], respectively, were incubated, for 10 min at 37° C., with a sufficient sample (typically 50 μl) of crude cell extract (cells were sonicated, and the supernatant was recovered following centrifugation) to provide about 1-100 units of homocysteinase (“HCYase”) enzyme. The reactions were stopped by adding 0.1 ml of 50% TCA. The suspensions were then centrifuged using an Eppendorf centrifuge at 13 k rpm for 2 minutes. 0.5 ml samples of the supernatants were then added to 0.5 ml of 0.05% 3-methyl-2-benzothiazolinone hydrazone (“MBTH”) in 0.8 ml of 1M sodium acetate, pH 5.2 and incubated at 50° C. for 30 min. The amount of reaction products was determined for each sample, by spectrophotometry at OD320. The amount of protein was determined with a Bio-Rad 500-0006 kit (Bio-Rad, Richmond, Calif.) with bovine serum albumin as a standard. The enzyme specific activity was calculated as units/mg protein, with one unit of enzyme defined as the amount that catalyzes the formation of 1 μmol of α-ketobutyrate from homocysteine per minute. […]
(§6) The reaction was stopped by adding 0.1 ml of 50% TCA. […] The amount of reaction product was then determined by spectrophotometry at OD320. The Kcat (turnover number) values reported in FIG. 5, were determined from the calculation of Vmax values using standard kinetic expressions and plots.

N[C@@H](CCS)C(=O)O = experiment: as above; format: biochemical, Trichomonas vaginalis; settings: other: 37° C., pH 8.0, 100 mM phosphate buffer, 10 μM pyridoxal phosphate, 10 minutes, DL-homocysteine, L-cysteine or L-methionine separately, 10 μM to 1.6 mM
Excerpt: as §1, §2, §3, §4, §5, §6

N[C@@H](CS)C(=O)O = experiment: as above; format: biochemical, Trichomonas vaginalis; settings: other: 37° C., pH 8.0, 100 mM phosphate buffer, 10 μM pyridoxal phosphate, 10 minutes, DL-homocysteine, L-cysteine or L-methionine separately, 10 μM to 1.6 mM
Excerpt: as §1, §2, §3, §4, §5, §6

[3] = Homocysteinase specific activity, α-ketobutyrate assay; format: biochemical
Description: In the first step of this assay, 1 ml volumes of 100 mM phosphate buffer pH 8.0, containing also 10 μM pyridoxal phosphate, and different concentrations (25 μM-25 mM) of DL-homocysteine, or L-methionine, L-cysteine, respectively, were incubated, for 10 min at 37° C., with a sufficient sample (typically 50 μl) of crude cell extract (cells were sonicated, and the supernatant was recovered following centrifugation) to provide about 1-100 units of homocysteinase (“HCYase”) enzyme. The reactions were stopped by adding 0.1 ml of 50% TCA. The suspensions were then centrifuged using an Eppendorf centrifuge at 13 k rpm for 2 minutes. 0.5 ml samples of the supernatants were then added to 0.5 ml of 0.05% 3-methyl-2-benzothiazolinone hydrazone (“MBTH”) in 0.8 ml of 1M sodium acetate, pH 5.2 and incubated at 50° C. for 30 min. The amount of reaction products was determined for each sample, by spectrophotometry at OD320. The amount of protein was determined with a Bio-Rad 500-0006 kit (Bio-Rad, Richmond, Calif.) with bovine serum albumin as a standard. The enzyme specific activity was calculated as units/mg protein, with one unit of enzyme defined as the amount that catalyzes the formation of 1 μmol of α-ketobutyrate from homocysteine per minute. The assay procedure can, of course, also be used with purified homocysteinase samples that provide, for example, 1-100 units of enzyme per assay test.
Alternatively, an additional two stage strategy may be used. In the first stage, the partitioning material was DEAE Sepharose® FF, and loading and pre-washing were conducted with 20 mM sodium phosphate buffer, pH 7.2. Elution of the protein was accomplished using a linear gradient (8 ml/min) from 20 mM sodium phosphate buffer, pH 7.2 (solution A) to 20 mM sodium phosphate buffer, pH 7.2, 500 mM NaCl (solution B). In the second stage, the partitioning material was phenyl Sepharose® 6-FF, and loading and pre-washing were conducted with 0.6 M NH4SO4 in 20 mM sodium phosphate buffer, pH 7.2. Elution of the protein was accomplished using a linear gradient (5 ml/min) from 0.6 M NH4SO4, 20 mM sodium phosphate buffer, pH 7.2 (solution A) to 20 mM sodium phosphate buffer, pH 7.2, (solution B). The following purification results were obtained for this alternate procedure. The above-described cell-lysate contained 8400 units of homocysteinase at a specific activity (units/mg) of 5.2. Following completion of pre-column procedures, 6,300 units were recovered at a specific activity of 64 (about 75% yield). Upon completion of the DEAE Sepharose®-FF step (first column), 5,040 units were recovered at a specific activity of 172 (60% yield), while after the phenyl Sepharose® 6-FF step (second column), 4,200 units remained at a specific activity of 300 (50% yield).
An activity assay for the keto product of the α, γ or α,β-elimination (α-keto butryate for homocysteine) was carried out in a 1.5 ml Eppindorf tube using 1-ml. of 50 mM phosphate buffer pH 8.0 (also containing 10 μM pyridoxal phosphate and 20 mM homocysteine) for 10 minutes at 37° C., with varying amounts of enzyme. The reaction was stopped by adding 0.5 ml of 4.5% TCA. […]
The amount of reaction product was determined by spectrophotometry at OD335. […] The amount of protein was determined with the Lowry Reagent Kit (Sigma) with bovine serum albumin as a standard. The specific activity was calculated as units/mg protein, with one unit of enzyme defined as the amount that catalyzed the formation of 1 μmol of α-ketobutyrate/minute.

[4] = Relative activity toward homocysteine versus cysteine or methionine; format: biochemical; settings: apparent activity
Description: In the first step of this assay, 1 ml volumes of 100 mM phosphate buffer pH 8.0, containing also 10 μM pyridoxal phosphate, and different concentrations (25 μM-25 mM) of DL-homocysteine, or L-methionine, L-cysteine, respectively, were incubated, for 10 min at 37° C., with a sufficient sample (typically 50 μl) of crude cell extract (cells were sonicated, and the supernatant was recovered following centrifugation) to provide about 1-100 units of homocysteinase (“HCYase”) enzyme. The reactions were stopped by adding 0.1 ml of 50% TCA. The suspensions were then centrifuged using an Eppendorf centrifuge at 13 k rpm for 2 minutes. 0.5 ml samples of the supernatants were then added to 0.5 ml of 0.05% 3-methyl-2-benzothiazolinone hydrazone (“MBTH”) in 0.8 ml of 1M sodium acetate, pH 5.2 and incubated at 50° C. for 30 min. The amount of reaction products was determined for each sample, by spectrophotometry at OD320. The amount of protein was determined with a Bio-Rad 500-0006 kit (Bio-Rad, Richmond, Calif.) with bovine serum albumin as a standard. The enzyme specific activity was calculated as units/mg protein, with one unit of enzyme defined as the amount that catalyzes the formation of 1 μmol of α-ketobutyrate from homocysteine per minute. The assay procedure can, of course, also be used with purified homocysteinase samples that provide, for example, 1-100 units of enzyme per assay test. […]

[5] = Single enzyme assay detecting product hydrogen sulfide: contribution of homocysteine versus cysteine; format: biochemical
Excerpt: According to the preferred practice of the invention, homocysteinases are provided wherein the relative activities of said enzymes toward homocysteine versus cysteine are such that, by detecting product hydrogen sulfide, the apparent concentration of homocysteine measured in a patient sample (which reflects also a contribution from cysteine) is less that about 150%, preferably less than about 110%, and most preferably less than about 102%, of the actual value thereof. In a further preferred example of the invention, for example using the novel Trichomonas homocysteinase expressed from pAC2-1, the apparent concentration of homocysteine measured in a single enzyme assay reflects no more than about a 1% false contribution from cysteine.
In general, useful diagnostic information can be obtained when the amount of produced hydrogen sulfide attributable to homocysteine is about one half of the total. […] Preferably, however the fraction of total hydrogen sulfide detected in an assay that is attributable to homocysteine is at least 90%, preferably 95%, more preferably 98%, and most preferably 99% or greater. The 99% level is readily obtained according to the practice of the invention, for example using the homocysteinase represented by SEQ ID NO: 10. […]

## L-methionine-alpha-deamino-gamma-mercaptomethane lyase [P. putida enzyme]
[1]
  apparent preference for homocysteine over cysteine: ~10 fold

## N[C@@H](CCS)C(=O)O (racemic) [homocysteine]
[2]
  Km: ~0.5 mM

## Trichomonas vaginalis homocysteinase, pAC2-1 clone (recombinant in E. coli BL21 (DE3)), SEQ ID NO: 10; versus mgl1 (SEQ ID NO: 12): Phe47 to Leu, Asp172 to Glu, Ser308 to Tyr; N-terminal 6x His (Trichomonas vaginalis; D172E/F47L/S308Y)
CSCC[C@H](N)C(=O)O
  Km: 3.1 mM
N[C@@H](CCS)C(=O)O
  Km: 4.8 mM
N[C@@H](CS)C(=O)O
  Km: 3.45 mM

B1: SEQ ID NO: 10: recombinant Trichomonas vaginalis homocysteinase from E. coli clone pAC2-1 (ATCC 98549), with 6 N-terminal histidine residues (protein)
chain: MHHHHHHMSHERMTPATACIHANPQKDQFGAAIPPIYQTSTFVFDNCQQGGNRLAGQESGYIYTRLGNPTVSNLEGKIAFLEKTEACVATSSGMGAIAATVLTILKAGDHLISDECLYGCTHALFEHALTKFGIQVDFINTAIPGEVKKHMKPNTKIVYFETPANPTLKIIDMERVCKEAHSQEGVLVIADNTFCSPMITNPVDFGVDVVVHSATKYINGHTDVVAGLICGKADLLQQIRMVGIKDITGSVISPHDAWLITRGLSTLNIRMKAESENAMKVAEYLKSHPAVEKVYYPGFEDHEGHDIAKKQMRMYGSMITFILKSGFEGAKKLLDNLKLITLAVSLGGCESLIQHPASMTHAVVPKEEREAAGITDGMIRLSVGIEDADELIADFKQGLDALL
modifications: N-terminal His6 tag
notes: recombinant Trichomonas vaginalis homocysteinase from E. coli clone pAC2-1 (ATCC 98549), with 6 N-terminal histidine residues
[3]; after DEAE Sepharose-FF step
  specific activity: 172 units/mg
[3]; after phenyl Sepharose 6-FF step
  specific activity: 300 units/mg
[3]; after pre-column procedures
  specific activity: 64 units/mg
[3]; cell-lysate
  specific activity: 5.2 units/mg
[3]; commercial product HYase from AntiCancer, Inc
  specific activity: 40 units/mg
[4]
  activity for homocysteine relative to cysteine and methionine: at least 100 fold
[5]; single enzyme assay of patient samples
  fraction of total hydrogen sulfide detected that is attributable to homocysteine: ≥ 99%
[5]; single enzyme assay, product hydrogen sulfide detected
  false contribution from cysteine to apparent homocysteine concentration: ≤ 1%

From patent US6468762B1, “High specificity homocysteinases” (AntiCancer, Inc., priority 1997, dated 2002)
